From paper PMC2119608 come the findings set out here.

In the assay the target is CD3 gamma subunit, transiently expressed in COS cells (human) (UniProt P09693). The experiment in a line: co-IP.
Sequence of UniProt P09693 (P09693 23-182): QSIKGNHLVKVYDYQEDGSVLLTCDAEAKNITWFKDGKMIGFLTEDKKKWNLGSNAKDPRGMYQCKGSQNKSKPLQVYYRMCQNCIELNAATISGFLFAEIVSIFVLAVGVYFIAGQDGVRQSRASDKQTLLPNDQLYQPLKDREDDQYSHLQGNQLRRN

On to “T cell antigen receptor (TCR) beta chain, transiently expressed in COS cells”, for which the percent bound to CD3 subunits was determined as 60%.
